According to patent US10654908B2, “Isolated T cell receptors and methods of use therefor” (University of Virginia Patent Foundation, priority 2014, dated 2020):
Where no end group is shown, it is not given here. [ ]: non-standard residue; d: D form. pS = N[C@@H](COP(=O)(O)O)C(=O)O

How the values were obtained:
[1] = test system: human CD8 T-cells; experiment: IFN-γ ELISpot of human CD8 T-cells cultured 7 days with peptide-pulsed DC; format: cell-based; conditions: for donors with pre-existing memory response: CD45RO+ CD8 T-cells from four donors, 7 days, cutoff >50 spots/25,000 cells; for magnitude of phosphopeptide-specific IFN-γ responses of normal donor T-cells: bulk CD8 T-cells, 7 days with peptide-pulsed autologous DC, restimulated with phosphopeptide-pulsed HLA-A2+ targets
[2] = Immunization of AAD transgenic mice with phosphopeptide-pulsed DC; conditions: mouse
[3] = test system: pIRS-2 pulsed C1R-A2 or C1R-AAD target cells; experiment: IFN-γ ELISA of TCR-expressing human CD8 T-cells with pulsed C1R-A2 or C1R-AAD targets (pIRS-2); format: cell-based; conditions: 18-20 hours co-culture
Experimental: Human CD8 T-cells were electroporated with IVT RNA encoding murine TCR αβ chains specific for pIRS-2 (pIRS2 BK TCR; FIG. 10A; SEQ ID NO: 2) or pDesmuslin (A10 (right to left hatched boxes) or A11 (left to right hatched boxes) TCR chains; FIG. 10B), and assayed 12-14 hours later. TCR-expressing human CD8 T-cells were co-cultured for 18-20 hours with C1R-A2 or C1R-AAD pulsed or unpulsed target cells. Supernatants were then harvested and IFN-γ was detected by ELISA. No RNA controls underwent electroporation with no addition of IVT RNA (open squares).

[4] = test system: HLA-A2+ cancer cell lines; experiment: CD107a / IFN-γ flow cytometry after co-culture with human cancer cells; format: cell-based
Experimental: (§1) 14-16 hours post-electroporation, phosphopeptide-specific murine TCR-transfected human CD8 T-cells were co-cultured in AIM-V (Life Technologies Corporation, Gaithersburg, Md., United States of America) supplemented with 5% human AB^+ serum (GEMCELL™; Gemini Bio-Products, West Sacramento, Calif., United States of America) with peptide-pulsed or unpulsed C1R-AAD, C1R-A2, or cancer cells endogenously expressing the pIRS-21097-1105 or the pCDC25b38-46 phosphopeptide. Cell surface expression of mouse TCRβ, human CD3, and human CD8 molecules on human CD8 T-cells were assessed using antibodies from either Becton Dickinson Bioscience (San Jose, Calif., United States of America) or eBioScience Inc. (San Diego, Calif., United States of America). During a 5 hour co-culture of stimulator cells with phosphopeptide-specific murine TCR-transfected human CD8-T cells at 37° C., anti-human CD107a-Alexa 647 antibody (eBioScience Inc., San Diego, Calif., United States of America) was added in the presence of 5 μg/ml Brefeldin A (SIGMA-ALDRICH® Co. LLC, St. Louis, Mo., United States of America), 5 μg/ml Monensin (eBioScience Inc., San Diego, Calif., United States of America) and 300 IU/ml human IL-2 (Chiron Corporation, Emeryville, Calif., United States of America). Cells were then stained for surface molecule expression, fixed and permeabilized using CYTOFIX/CYTOPERM™ (Becton Dickinson Bioscience (San Jose, Calif., United States of America) and stained for intracellular cytokine (anti-IFN-γand anti-TNF-α, eBioScience Inc., San Diego, Calif., United States of America). Immunofluoresence was analyzed using the Becton Dickinson FACSCANTO™ I or FACSCANTO™II flow cytometer and analyzed using FlowJo software (Tree Star, Inc., Ashland, Oreg., United States of America).
Whether these transfected human CD8 T-cells could recognize endogenously processed and presented pIRS-21097-1105 or pCDC25b38-46 phosphopeptide on HLA-A2^+ cancer cell lines was investigated. To correlate pIRS-21097-1105-specific T-cell recognition with phosphopeptide expression, an antibody specific for the Ser^1100-phosphorylated IRS-2 protein (pSer^1100-IRS-2) as well as an antibody that recognizes total IRS-2 protein (Zarling et al., 2006) were employed. […] These two cell lines also expressed high levels of pSer^1100-IRS-2 (FIG. 4). […] There is no specific antibody for Ser^42-phosphorylated CDC25b.

[5] = test system: AAD+ SLM2 melanoma cells; experiment: Tumor control after adoptive transfer of TCR-expressing human CD8 T-cells; format: in vivo, NOD/SCID/IL-2Rγc−/− mice
Description: Seven to 8 week old male […] mice (The Jackson Laboratory, Bar Harbor, Me., United States of America) were inoculated subcutaneously with 1.4×10^6 AAD^+ SLM2 melanoma cells. 3×10^6 human CD8 T-cells expressing either pIRS-2- or pCDC25b-specific TCR, or 1.5×10^6 of both populations, were adoptively transferred 3 days later. An additional 1.5×10^6 T-cells were given 4 days later. All mice received 1500 CU of IL-2 (R&D Systems, Inc., Minneapolis, Minn., United States of America) […]. every other day for 10 days. Tumor size was measured every 2-3 days with a digital caliper, and calculated as L×W (mm^2). Tumor free survival is equal to the measurement day when the tumor size was >30 mm^2.
Log-rank (Mantel Cox Test) analysis, Cox proportional hazard modeling, and parametric modeling were performed to determine statistical significance where indicated. p values less than 0.05 were considered significant.

[6] = test system: C1R-A2 cells pulsed with 1 μM phosphopeptide; experiment: In vitro cytotoxicity assay (CFSE); format: cell-based, human; conditions: 5 hours co-culture, pulsed versus unpulsed C1R-A2
Experimental: Phosphopeptide-specific murine TCR-expressing human CD8 T-cells were co-cultured for 5 hours with a 1:1 mix of C1R-A2 cells pulsed with 1 μM phosphopeptide and stained with 1 μM carboxyfluorescein succinimidyl ester (CFSE; Life Technologies) and unpulsed C1R-A2 cells stained with 0.1 μM CFSE. Specific killing was assessed by evaluating percent loss of the peptide-pulsed population relative to the unpulsed population.

[7] = test system: pCDC25b38-46-pulsed C1R-AAD and C1R-A2 targets; experiment: CD107a / IFN-γ flow cytometry of TCR-electroporated human CD8 T-cells on pCDC25b peptide-pulsed targets; format: cell-based
Experimental: Prior to electroporation, donor T-cells were washed three times in serum-free OPTI-MEM® media (Life Technologies Corporation, Gaithersburg, Md., United States of America) and were suspended at 25×10^6/ml. Cells were mixed with 2 μg IVT RNA of each TCR α and β chain per 10^6 cells and transferred to pre-chilled BTX 2 mm gap cuvettes. Using the BTX T820 electroporation system (BTX Instrument Division, Harvard Apparatus, Inc. Holliston, Mass., United States of America), cells were pulsed at 500V for 0.3 msec. Transfected cells were placed in AIM-V® brand serum-free medium (Life Technologies Corporation, Gaithersburg, Md., United States of America) with 5% AB^+ serum (GEMCELL™; Gemini Bio-Products, West Sacramento, Calif., United States of America) for 8-24 hours and evaluated for TCR expression and functionality.
as §1, with “During a 5 hour co-culture of stimulator cells with phosphopeptide-specific murine TCR-transfected human CD8-T cells at 37° C., anti-human CD107a-Alexa 647 antibody (eBioScience Inc., San Diego, Calif., United States of America) was added in the presence of 5 μg/ml Brefeldin A (SIGMA-ALDRICH® Co. LLC, St. Louis, Mo., United States of America), 5 μg/ml Monensin (eBioScience Inc., San Diego, Calif., United States of America) and 300 IU/ml human IL-2 (Chiron Corporation, Emeryville, Calif., United States of America).” left out

[8] = recognized / evaluated cell lines

GLLGpSPVRA (GLLG[pS]PVRA; listed as Homo sapiens) [pCDC25b38-46]
immunogenicity in vitro for human T-cells [1]: strongly immunogenic | donors with pre-existing memory response [1]: all four and four | magnitude of phosphopeptide-specific IFN-γ responses of normal donor T-cells [1]: surprisingly high | immunogenicity in vivo for HLA-A2 transgenic mice [2]: strongly immunogenic

RVApSPTSGV (RVA[pS]PTSGV; listed as Homo sapiens) [pIRS-21097-1105]
immunogenicity in vitro for human T-cells [1]: strongly immunogenic | donors with pre-existing memory response [1]: 2/4 | magnitude of phosphopeptide-specific IFN-γ responses of normal donor T-cells [1]: surprisingly high | immunogenicity in vivo for HLA-A2 transgenic mice [2]: strongly immunogenic

B1: pIRS2 BK TCR: second murine TCR specific for the IRS-2 phosphopeptide; α chain SEQ ID NO: 8, β chain SEQ ID NO: 10 (protein, listed as Mus musculus)
alpha: MLLALLPVLGIHFVLRDAQAQSVTQPDARVTVSEGASLQLRCKYSYSGTPYLFWYVQYPRQGLQLLLKYYSGDPVVQGVNGFEAEFIKSNSSFHLRKASVHWSDSAVYFCAVSAGSGGKLTLGAGTRLQVNLDIQNPEPAVYQLKDPRSQDSTLCLFTDFDSQVNVPKTMESGTFIADKTVLDMKAMDSKSNGAIAWSNQTSFTCQDIFKETNATYPSSDVPCDATLTEKSFETDMNLNFQNLSVMGLRILLLKVAGFNLLMTLRLWSS
beta: MGSRLFFVVLILLCAKHMEAAVTQSPRSKVAVTGGKVTLSCHQANNHDYMYWYRQDTGHGLRLIHYSYVADSTEKGDIPDGYKASRPSQENFSLILELASLSQTAVYFCASSDRDNYAEQFFGPGTRLTVLEDLRNVTPPKVSLFEPSKAEIANKQKATLVCLARGFFPDHVELSWWVNGKEVRSGVSTDPQAYKESNYSYCLSSRLRVSATFWHNPRNHFRCQVQFHGLSEEDKWPEGSPKPVTQNISAEAWGRADCGITSASYHQGVLSATILYEILLGKATLYAVLVSGLVLMAMVKKKNS
recognition of HLA-A2+ targets and effector function (IFN-γ ELISA) [3]: conferred recognition of HLA-A2+ targets and effector function

B2: pCDC25b-specific TCR: murine TCR binding GLLGpSPVRA/HLA-A2; α chain SEQ ID NO: 14, β chain SEQ ID NO: 16; tested expressed in human CD8 T-cells (protein, listed as Mus musculus)
alpha: MKTVTGPLFLCFWLQLNCVSRGEQVEQRPPHLSVREGDSAVIICTYTDPNSYYFFWYKQEPGAGLQLLMKVFSSTEINEGQGFTVLLNKKDQQLSLNLTAAHPGDSAVYFCAVKPGGYKVVFGSGTRLLVSPDIQNPEPAVYQLKDPRSQDSTLCLFTDFDSQINVPKTMESGTFITDKTVLDMKAMDSKSNGAIAWSNQTSFTCQDIFKETNATYPSSDVPCDATLTEKSFETDMNLNFQNLSVMGLRILLLKVAGFNLLMTLRLWSS
beta: MSNTAFPDPAWNTTLLSWVALFLLGTKHMEAAVTQSPRNKVAVTGGKVTLSCNQTNNHNNMYWYRQDTGHGLRLIHYSYGAGSTEKGDIPDGYKASRPSQENFSLILELATPSQTSVYFCASGGDTQYFGPGTRLLVLEDLRNVTPPKVSLFEPSKAEIANKQKATLVCLARGFFPDHVELSWWVNGKEVHSGVSTDPQAYKERNYSYCLSSRLRVSATFWHNPRNHFRCQVQFHGLSEEDKWPEGSPKPVTQNISAEAWGRADCGITSASYHQGVLSATILYEILLGKATLYAVLVSGLVLMAMVKKKNS
recognition (CD107a / IFN-γ) of HLA-A2+ melanoma cell lines MelSwift and 1102Mel [4]: recognized two HLA-A2^+ melanomas | recognition of HLA-A2+ EBV-transformed lymphoblastoid cell line JY [4]: did recognize | recognition of HLA-A2neg cancer cells T47D and SK-Mel-28 [4]: did not recognize | recognition of HLA-A2neg melanoma SK-Mel-28 or HLA-A2+ antigen-low ovarian carcinoma OV-90 [4]: failed to recognize | level of recognition of cancer cells ([4]; compared with peptide-pulsed targets): relatively low | HLA-A2+ breast carcinomas recognized [4, 8]: 3/3 | HLA-A2+ colorectal carcinomas recognized [4, 8]: did not recognize | HLA-A2+ melanomas recognized [4, 8]: 3/4 | HLA-A2+ ovarian carcinomas recognized [4, 8]: did not recognize | tumor-free survival ([5]; T-cells on days 3 and 7 plus IL-2, versus IL-2 only control, tumor-free = tumor size not >30 mm^2): enhanced tumor-free survival | tumor outgrowth in comparison to control animals ([5]; control received IL-2 only): delayed outgrowth | specific killing of peptide-pulsed targets [6]: killed pCDC25b38-46-pulsed but not pIRS-21097-1105 or pβ-catenin30-39-pulsed targets | recognition of phosphopeptide-pulsed targets expressing HLA-A2 compared with AAD [7]: at least as well as those expressing AAD | response to HLA-A2+ targets pulsed with high levels of the non-phosphorylated peptide ([7]; IFN-γ / CD107a): Neither cell produced IFN-γ or upregulated CD107a | EC50 ([7]; human CD8 T-cells electroporated with TCR IVT RNA, phosphopeptide-pulsed AAD+ targets, IFN-γ / CD107a, read-out: peptide dose for half-maximal recognition): 0.4 to 0.8 nM
